Laboratory results taken from the RNAGym collection of RNA variant scans (doi:10.1073/pnas.2313332121).

B1: TPR t1 (parent)
chain: GACCAAUCUGCCCUCAGAGCUCGAGAACAUCUUCGGAUGCAGAGGAGGCAGGCUUCGGUGGCGCGAUAGCGCCAACGUCCUCAACCUCCAAUGCAUCCCACCACAUGAUGAUGCCUGAAGAGCCUUGGUUUUUUG

Variants of: B1
Experiment: polymerase ribozyme fitness, log enrichment relative to wild type (log ratio); higher = more active; in vitro selection for triplet polymerase activity
Method in brief: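 Each subunit of a heterodimeric triplet polymerase ribozyme was mutagenized into a library by PCR, transcribed, and subjected to one round of in vitro selection, run in triplicate. Libraries were annealed with a biotinylated primer, the partner subunit and triplets, incubated frozen at −7 °C, and extended constructs were gel-excised, captured on streptavidin beads and recovered by RT-PCR. Input and output libraries were sequenced on Illumina, keeping genotypes with ≥10 input reads and ≥1 read per output. Fitness is log base 2 of genotype enrichment divided by wild-type enrichment, from inverse-variance-weighted replicate averages.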

Variant | polymerase ribozyme fitness (log ratio)
A26G U129C | -2.73
A26U | -2.98
A26U A29G | -4.77
A26U A43U A121U | -4.81
A26U A46C A90G U106A G127C | -2.32
A26U A75G A95G | -2.74
A26U A83U | -2.58
A26U A119G | -2.12
A26U C53A U78A G110A | -5.05
A26U C53U C72U U116G | -6.07
A26U C53U G71C A118U | -3.17
A26U C56A U59C | -4.4
A26U C62A A83U G117A | -6.44
A26U C62G | -4.89
A26U C62U G71C G93A G120U | -3.6
A26U C70A | -5.16
A26U C70U | -4.13
A26U C72A | -2.97
A26U C72A U78C A91C A118G A121U U126C | -5.75
A26U C72G C97G G117U U125A | -6.79
A26U C72G G120A | -2.51

Variant | polymerase ribozyme fitness (log ratio)
A26U C72U C124U | -1.98
A26U C82G | -4.82
A26U C82G C97A C98A U112A | -6.74
A26U C101A C114A C123G | -6.37
A26U C114A | -3.87
A26U C114U | -5.07
A26U C124U | -2.17
A26U G36C | -4.29
A26U G36U C101U | -5.32
A26U G39A C49G G61A C88U C124G | -3.77
A26U G39U G60C U78C G117C | -6.27
A26U G42C | -6.73
A26U G42U G69C C72A C79U G110C | -7.46
A26U G44A G48U C82U G122A | -6.34
A26U G44C G48C C101A A111G U112A C124A | -8.24
A26U G47A | -4.24
A26U G61A | -3.03
A26U G61U U112C | -2.62
A26U G69A U78G U106A | -4.44
A26U G69U | -1.44
A26U G127C | -3.57

Variant | polymerase ribozyme fitness (log ratio)
A26U G135A | -3.67
A26U U54A G110A | -5.04
A26U U54C U133A | -4
A26U U54G U78C C89U | -5.2
A26U U81C | -3.05
A26U U96A C114U G117A | -5.98
A27C | -2.85
A27C A43C C114U | -4.33
A27C A43G | -5.95
A27C C28G | -4
A27C C28U | -5.13
A27C C49U G61U U92C | -6.24
A27C C53A C94G | -4.6
A27C C53U C72U U125A | -3.83
A27C C62U C94U | -2.79
A27C C82U C124A | -0.986
A27C C86G U133A | -5.16
A27C C94U | -3.16
A27C C123A | -3.14
A27C C124G | -0.608
A27C G42C G71A G120C U126A U130G | -6.83

Variant | polymerase ribozyme fitness (log ratio)
A27C G47U G63A C86U | -6.59
A27C G61A | -4.32
A27C G71A U116C | -4.74
A27C G120A | -3
A27C G120U | -4.08
A27C U54A G71A C115A U129A | -5.86
A27C U78G U125A | -4.05
A27C U87A A91G | -4.73
A27G | -1.52
A27G A29C G36A A46C C72G U106C U112G U116A | -7.34
A27G A41U C64U | -3.32
A27G A46C A50U | -4.64
A27G A46G C89G | -4.52
A27G A46U G77U U78A | -3.31
A27G A50C A111U | -3.29
A27G C40G | -1.89
A27G C40U G61C | -4.06
A27G C49A U78C | -2.36
A27G C49U A91C | -4.72
A27G C49U C76G | -2.99
A27G C53U C72A C102U | -3.85
